Laboratory results: patent US12570994B2, “Plants having increased tolerance to herbicides” (BASF AGRO B.V., priority 2010, dated 2026)
Numbering of substitutions follows the chain as printed. Numbers in names are those of the source.

B1: F420M: amino acid substituted PPO enzyme F420M (protein, listed as Amaranthus tuberculatum)
chain: MVIQSITHLSPNLALPSPLSVSTKNYPVAVMGNISEREEPTSAKRVAVVGAGVSGLAAAYKLKSHGLSVTLFEADSRAGGKLKTVKKDGFIWDEGANTMTESEAEVSSLIDDLGLREKQQLPISQNKRYIARDGLPVLLPSNPAALLTSNILSAKSKLQIMLEPFLWRKHNATELSDEHVQESVGEFFERHFGKEFVDYVIDPFVAGTCGGDPQSLSMHHTFPEVWNIEKRFGSVFAGLIQSTLLSKKEKGGENASIKKPRVRGSFSFQGGMQTLVDTMCKQLGEDELKLQCEVLSLSYNQKGIPSLGNWSVSSMSNNTSEDQSYDAVVVTAPIRNVKEMKIMKFGNPFSLDFIPEVTYVPLSVMITAFKKDKVKRPLEGFGVLIPSKEQHNGLKTLGTLFSSMMFPDRAPSDMCLFTTMVGGSRNRKLANASTDELKQIVSSDLQQLLGTEDEPSFVNHLFWSNAFPLYGHNYDSVLRAIDKMEKDLPGFFYAGNHKGGLSVGKAMASGCKAAELVISYLDSHIYVKMDEKTA
B2: R128A: amino acid substituted PPO enzyme R128A (protein, listed as Amaranthus tuberculatum)
chain: B1 chain with R128A, M420F
B3: F420L: amino acid substituted PPO enzyme F420L (protein, listed as Amaranthus tuberculatum)
chain: B1 chain with M420L

Key:
[1] = molecular target: wild type PPO enzyme (Amaranthus tuberculatus, UniProt Q0NZW9); assay: PPO enzyme assay (recombinant), wild type; type: biochemical; details: 150 μM Protogen
[2] = tested on: Chlamydomonas reinhardtii; assay: Selection of mutagenized algae cells on solid medium with herbicide; details: solid medium containing 1×10^−7 M
Experimental: Algae cells of Chlamydomonas reinhardtii strains CC-503 and CC-1691 (Duke University, Durham, USA) are propagated in TAP medium (Gorman and Levine (1965) PNAS 54:1665-1669) by constant shaking at 100 rpm, 22° C. and 30 μmol Phot*m^−2*s^−2 light illumination. […] Compound screening is performed at 450 μmol Phot*m^−2*s^−2 illumination.
Sensitive strains of Chlamydomonas reinhardtii or Scenedesmus obliquus are mutated with 0.14 M ethylmethanesulfonate (EMS) for 1 h as described by Loppes (1969, 20 Mol Gen Genet 104:172-177) Tolerant strains are identified by screening of mutagenized cells on solid nutrient solution plates containing benzoxazinone-derivative herbicide of interest at low to lethal concentrations depending on compound activity in specific algae strain.
(A) Mutagenized cells plated on solid medium without a selecting agent. (B) Mutagenized cells plated on solid medium containing 1×10^−7 M benzoxazinone-derivative I.a.35.

[3] = Enzyme activity of recombinant wild type and substituted PPO enzymes; details: fluorescence unit change per minute

| Molecule | IC50 [1] | growth of mutagenized Chlamydomonas reinhardtii cells (colony formation) [2] | Activity (FU/min) [3] |
| --- | --- | --- | --- |
| C#CCN1C(=O)C(F)(F)Oc2cc(F)c(-n3c(=O)n(C)c(=S)n(C)c3=O)cc21 [benzoxazinone 1.a.35] | 0.12 nM | susceptible cells do not grow |  |
| B1 |  |  | 353 FU/min |
| B2 |  |  | 731 FU/min |
| B3 |  |  | 203 FU/min |
